± gives the standard deviation of the averaged measurements.

Data on 11 substances can be found in the supplement of paper PMC3353916.

The test system of this series is Sindbis virus TE/5'2J-GFP. Description: percent infected (GFP+ in RFP+ ISG-expressing cells); higher = more infection (less antiviral activity). The method, then:
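Confirmatory testing of 87 ISGs. Triplicate wells of BHK/HA-Zeo (control) or BHK/NZAP-Zeo (ZAP) cells were transduced with lentiviruses co-expressing a human ISG plus TagRFP, then infected 48 h later with SINV TE/5'2J-GFP (moi 5). The % GFP+ cells among RFP+ cells was measured by flow cytometry at 8 h post infection. Fluc lentivirus served as control. Three independent experiments.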

The mark [1] stands for this setting: experiment: confirmatory screen 1, BHK/HA-Zeo (control).
Where [2] appears, read: experiment: confirmatory screen 1, BHK/NZAP-Zeo (ZAP).
Setting [3] is: experiment: confirmatory screen 2, BHK/HA-Zeo (control).
Where [4] appears, read: experiment: confirmatory screen 2, BHK/NZAP-Zeo (ZAP).
[5] abbreviates: experiment: confirmatory screen 3, BHK/HA-Zeo (control).
Where [6] appears, read: experiment: confirmatory screen 3, BHK/NZAP-Zeo (ZAP).
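Note: Interferon-defective BHK-21 derivatives, ZAP line overexpressing the rat ZAP N-terminal zinc finger domain fused to Zeocin resistance, GFP scored within live singlet TagRFP+ cells.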

In the case of “MKEDCLPSSHVPISDSKSIQKSELLGLLKTYNCYHEGKSFQLRHREEEGTLIIEGLLNIAWGLRRPIRLQMQDDREQVHLPSTSWMPRRPSCPLKEPSPQNGNITAQGPSIQPVHKAESSTDSSGPLEEAEEAPQLMRTKSDASCMSQRRPKCRAPGEAQRIRRHRFSINGHFYNHKTSVFTPAYGSVTNVRVNSTMTTLQVLTLLLNKFRVEDGPSEFALYIVHESGERTKLKDCEYPLISRILHGPCEKIARIFLMEADLGVEVPHEVAQYIKFEMPVLDSFVEKLKEEEEREIIKLTMKFQALRLTMLQRLEQLVEAK [RASSF4]”, the percent infected reads like this: under setting [1], 80.1 ± 2.3%; under setting [2], 56.3 ± 1.3%; under setting [3], 94.73 ± 0.66%; under setting [4], 94.93 ± 0.39%; under setting [5], 89.1 ± 0.9%; under setting [6], 89.9 ± 1.3%.

Take “MPSLWDRFSSSSTSSSPSSLPRTPTPDRPPRSAWGSATREEGFDRSTSLESSDCESLDSSNSGFGPEEDTAYLDGVSLPDFELLSDPEDEHLCANLMQLLQESLAQARLGSRRPARLLMPSQLVSQVGKELLRLAYSEPCGLRGALLDVCVEQGKSCHSVGQLALDPSLVPTFQLTLVLRLDSRLWPKIQGLFSSANSPFLPGFSQSLTLSTGFRVIKKKLYSSEQLLIEEC [DDIT4]”: the percent infected by setting is: under setting [1], 95.2 ± 1.2%; under setting [2], 76.2 ± 2.5%; under setting [3], 96.4 ± 0.11%; under setting [4], 94.99 ± 0.17%; under setting [5], 94.1 ± 0.29%; under setting [6], 92.99 ± 0.24%.

The substance “MEQHFLGCVKRAWDSAEVAPEPQPPPIVSSEDRGPWPLPLYPVLGEYSLDSCDLGLLSSPCWRLPGVYWQNGLSPGVQSTLEPSTAKPTEFSWPGTQKQQEAPVEEVGQAEEPDRLRLQQLPWSSPLHPWDRQQDTEVCDSGCLLERRHPPALQPWRHLPGFSDCLEWILRVGFAAFSVLWACCSRICGAKQP [C5orf39]” yielded a percent infected under setting [1] of 76.7 ± 4.1%; a percent infected under setting [2] of 9.13 ± 2.2%; a percent infected under setting [3] of 93.67 ± 0.59%; a percent infected under setting [4] of 89.88 ± 0.14%; a percent infected under setting [5] of 75.4 ± 1.5%; a percent infected under setting [6] of 50.1 ± 3%.

As for “MSSWSRQRPKSPGGIQPHVSRTLFLLLLLAASAWGVTLSPKDCQVFRSDHGSSISCQPPAEIPGYLPADTVHLAVEFFNLTHLPANLLQGASKLQELHLSSNGLESLSPEFLRPVPQLRVLDLTRNALTGLPPGLFQASATLDTLVLKENQLEVLEVSWLHGLKALGHLDLSGNRLRKLPPGLLANFTLLRTLDLGENQLETLPPDLLRGPLQLERLHLEGNKLQVLGKDLLLPQPDLRYLFLNGNKLARVAAGAFQGLRQLDMLDLSNNSLASVPEGLWASLGQPNWDMRDGFDISGNPWICDQNLSDLYRWLQAQKDKMFSQNDTRCAGPEAVKGQTLLAVAKSQ [LRG1]”, the percent infected runs as follows: under setting [1], 95.1 ± 1%; under setting [2], 68.2 ± 4.8%; under setting [3], 95.09 ± 0.35%; under setting [4], 94.92 ± 0.53%; under setting [5], 93.09 ± 0.65%; under setting [6], 94.47 ± 0.18%.

The substance “MRSARSTALNRGEQRAVRYYSHMKLNMAEEEDYMSDSFINVQEDIRPGLPMLRQIREARRKEEKQQEANLKNRQKSLKEEEQERRDIGLKNALGCENKGFALLQKMGYKSGQALGKSGGGIVEPIPLNIKTGKSGIGHEASLKRKAEEKLESYRKKIHMKNQAEEKAAEQFRMRLKNKQDEMKLEGDLRRSQRACQQLDVQKNIQVPREAWYWLRLEEETEEDEEEKEQDEDEYKSEDLSVLEKLQILTSYLREEHLYCIWCGTAYEDKEDLSSNCPGPTSADHD [CCDC75]” registered a percent infected under setting [1] of 93.8 ± 1.8%; a percent infected under setting [2] of 56.8 ± 4.7%; a percent infected under setting [3] of 96.02 ± 0.47%; a percent infected under setting [4] of 95.39 ± 0.41%; a percent infected under setting [5] of 94.54 ± 0.85%; a percent infected under setting [6] of 92.82 ± 0.32%.

“MTTEQRRSLQAFQDYIRKTLDPTYILSYMAPWFREEEVQYIQAEKNNKGPMEAATLFLKFLLELQEEGWFRGFLDALDHAGYSGLYEAIESWDFKKIEKLEEYRLLLKRLQPEFKTRIIPTDIISDLSECLINQECEEILQICSTKGMMAGAEKLVECLLRSDKENWPKTLKLALEKERNKFSELWIVEKGIKDVETEDLEDKMETSDIQIFYQEDPECQNLSENSCPPSEVSDTNLYSPFKPRNYQLELALPAMKGKNTIICAPTGCGKTFVSLLICEHHLKKFPQGQKGKVVFFANQIPVYEQQKSVFSKYFERHGYRVTGISGATAENVPVEQIVENNDIIILTPQILVNNLKKGTIPSLSIFTLMIFDECHNTSKQHPYNMIMFNYLDQKLGGSSGPLPQVIGLTASVGVGDAKNTDEALDYICKLCASLDASVIATVKHNLEELEQVVYKPQKFFRKVESRISDKFKYIIAQLMRDTESLAKRICKDLENLSQIQNREFGTQKYEQWIVTVQKACMVFQMPDKDEESRICKALFLYTSHLRKYNDALIISEHARMKDALDYLKDFFSNVRAAGFDEIEQDLTQRFEEKLQELESVSRDPSNENPKLEDLCFILQEEYHLNPETITILFVKTRALVDALKNWIEGNPKLSFLKPGILTGRGKTNQNTGMTLPAQKCILDAFKASGDHNILIATSVADEGIDIAQCNLVILYEYVGNVIKMIQTRGRGRARGSKCFLLTSNAGVIEKEQINMYKEKMMNDSILRLQTWDEAVFREKILHIQTHEKFIRDSQEKPKPVPDKENKKLLCRKCKALACYTADVRVIEECHYTVLGDAFKECFVSRPHPKPKQFSSFEKRAKIFCARQNCSHDWGIHVKYKTFEIPVIKIESFVVEDIATGVQTLYSKWKDFHFEKIPFDPAEMSK [DDX58]”: the percent infected under setting [1] worked out at 38 ± 4.1%; the percent infected under setting [2] was determined as 4.81 ± 4.5%; the percent infected under setting [3] was found to be 96.53 ± 0.19%; the percent infected under setting [4] stood at 89.2 ± 2.2%; the percent infected under setting [5] came to 75.6 ± 6%; the percent infected under setting [6] worked out at 23.2 ± 3.1%.

On to ABTB2, for which the percent infected came to 94.03 ± 0.73% under setting [1]; 63.5 ± 5.5% under setting [2]; 94.02 ± 0.29% under setting [3]; 95.3 ± 0.29% under setting [4]; 93.9 ± 2% under setting [5]; 94.69 ± 0.42% under setting [6].

On to “MAVMEMACPGAPGSAVGQQKELPKAKEKTPPLGKKQSSVYKLEAVEKSPVFCGKWEILNDVITKGTAKEGSEAGPAAISIIAQAECENSQEFSPTFSERIFIAGSKQYSQSESLDQIPNNVAHATEGKMARVCWKGKRRSKARKKRKKKSSKSLAHAGVALAKPLPRTPEQESCTIPVQEDESPLGAPYVRNTPQFTKPLKEPGLGQLCFKQLGEGLRPALPRSELHKLISPLQCLNHVWKLHHPQDGGPLPLPTHPFPYSRLPHPFPFHPLQPWKPHPLESFLGKLACVDSQKPLPDPHLSKLACVDSPKPLPGPHLEPSCLSRGAHEKFSVEEYLVHALQGSVSSGQAHSLTSLAKTWAARGSRSREPSPKTEDNEGVLLTEKLKPVDYEYREEVHWATHQLRLGRGSFGEVHRMEDKQTGFQCAVKKVRLEVFRAEELMACAGLTSPRIVPLYGAVREGPWVNIFMELLEGGSLGQLVKEQGCLPEDRALYYLGQALEGLEYLHSRRILHGDVKADNVLLSSDGSHAALCDFGHAVCLQPDGLGKSLLTGDYIPGTETHMAPEVVLGRSCDAKVDVWSSCCMMLHMLNGCHPWTQFFRGPLCLKIASEPPPVREIPPSCAPLTAQAIQEGLRKEPIHRVSAAELGGKVNRALQQVGGLKSPWRGEYKEPRHPPPNQANYHQTLHAQPRELSPRAPGPRPAEETTGRAPKLQPPLPPEPPEPNKSPPLTLSKEESGMWEPLPLSSLEPAPARNPSSPERKATVPEQELQQLEIELFLNSLSQPFSLEEQEQILSCLSIDSLSLSDDSEKNPSKASQSSRDTLSSGVHSWSSQAEARSSSWNMVLARGRPTDTPSYFNGVKVQIQSLNGEHLHIREFHRVKVGDIATGISSQIPAAAFSLVTKDGQPVRYDMEVPDSGIDLQCTLAPDGSFAWSWRVKHGQLENRP [MAP3K14]”, for which the percent infected is, setting by setting: under setting [1], 96.4 ± 1.2%; under setting [2], 76.4 ± 1.8%; under setting [3], 97.1 ± 0.15%; under setting [4], 92.2 ± 0.5%; under setting [5], 86.1 ± 1.7%; under setting [6], 80.9 ± 2.1%.

Take “MASVAVDPQPSVVTRVVNLPLVSSTYDLMSSAYLSTKDQYPYLKSVCEMAENGVKTITSVAMTSALPIIQKLEPQIAVANTYACKGLDRIEERLPILNQPSTQIVANAKGAVTGAKDAVTTTVTGAKDSVASTITGVMDKTKGAVTGSVEKTKSVVSGSINTVLGSRMMQLVSSGVENALTKSELLVEQYLPLTEEELEKEAKKVEGFDLVQKPSYYVRLGSLSTKLHSRAYQQALSRVKEAKQKSQQTISQLHSTVHLIEFARKNVYSANQKIQDAQDKLYLSWVEWKRSIGYDDTDESHCAEHIESRTLAIARNLTQQLQTTCHTLLSNIQGVPQNIQDQAKHMGVMAGDIYSVFRNAASFKEVSDSLLTSSKGQLQKMKESLDDVMDYLVNNTPLNWLVGPFYPQLTESQNAQDQGAEMDKSSQETQRSEHKTH [ADFP]”: the percent infected is 91.4 ± 2% under setting [1]; 68 ± 2.8% under setting [2]; 96.84 ± 0.14% under setting [3]; 95.665 ± 0.052% under setting [4]; 88.3 ± 0.9% under setting [5]; 89.1 ± 1.9% under setting [6].

On to BTN3A3, for which the percent infected is, setting by setting: under setting [1], 82.3 ± 4%; under setting [2], 57.5 ± 0.65%; under setting [3], 93.48 ± 0.51%; under setting [4], 95.55 ± 0.27%; under setting [5], 90.09 ± 0.83%; under setting [6], 89.4 ± 1.4%.

For “MEVTTRLTWNDENHLRKLLGNVSLSLLYKSSVHGGSIEDMVERCSRQGCTITMAYIDYNMIVAFMLGNYINLHESSTEPNDSLWFSLQKKNDTTEIETLLLNTAPKIIDEQLVCRLSKTDIFIICRDNKIYLDKMITRNLKLRFYGHRQYLECEVFRVEGIKDNLDDIKRIIKAREHRNRLLADIRDYRPYADLVSEIRILLVGPVGSGKSSFFNSVKSIFHGHVTGQAVVGSDITSITERYRIYSVKDGKNGKSLPFMLCDTMGLDGAEGAGLCMDDIPHILKGCMPDRYQFNSRKPITPEHSTFITSPSLKDRIHCVAYVLDINSIDNLYSKMLAKVKQVHKEVLNCGIAYVALLTKVDDCSEVLQDNFLNMSRSMTSQSRVMNVHKMLGIPISNILMVGNYASDLELDPMKDILILSALRQMLRAADDFLEDLPLEETGAIERALQPCI [IFI44L]”, the percent infected runs as follows: under setting [1], 94.86 ± 0.39%; under setting [2], 67.5 ± 2.4%; under setting [3], 96.87 ± 0.21%; under setting [4], 94.83 ± 0.34%; under setting [5], 83.6 ± 1.6%; under setting [6], 85.31 ± 0.85%.
